According to patent publication US20140206607A1 (INDIANA UNIVERSITY RESEARCH AND TECHNOLOGY, published 2014):
Numbered stars: 1 amine (or outer) side, 2 acyl side, 3 side chain; on linkers, the order of the positions; unused ones are H or OH. Square brackets hold non-standard residues; d marks the D form. Side chains are listed from the residue outwards. Ends that are not written are not given here. * marks the point of attachment. 40K‑TE PEG = 40 kDa PEG covalently bound via thioether, formed by reaction of the free thiol of the peptide (Cys side chain) with an iodoacetic-functionalized PEG; γGlu = O=C(O)[C@H](CCC(=O)[*:2])N[*:1]; Palmitoyl = CCCCCCCCCCCCCCCC(=O)*; Orn = NCCC[C@H](N)C(=O)O; Aib = CC(C)(N)C(=O)O

Tests used:
Assay in all cases: cell-based or functional assay
GIP receptor = biological target: T1, GIP receptor (UniProt P48546 22-466)
T1 sequence (looked up): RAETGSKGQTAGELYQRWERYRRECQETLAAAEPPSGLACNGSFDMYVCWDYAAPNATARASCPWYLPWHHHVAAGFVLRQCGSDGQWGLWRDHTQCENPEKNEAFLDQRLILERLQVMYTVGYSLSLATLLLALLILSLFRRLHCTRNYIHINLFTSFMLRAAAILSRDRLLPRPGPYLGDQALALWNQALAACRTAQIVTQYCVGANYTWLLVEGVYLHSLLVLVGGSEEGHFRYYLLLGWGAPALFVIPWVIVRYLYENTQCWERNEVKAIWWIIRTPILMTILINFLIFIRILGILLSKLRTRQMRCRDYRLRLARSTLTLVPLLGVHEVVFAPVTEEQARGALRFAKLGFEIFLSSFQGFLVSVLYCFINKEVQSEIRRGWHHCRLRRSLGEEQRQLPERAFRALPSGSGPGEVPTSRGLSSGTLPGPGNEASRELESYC

glucagon receptor = glucagon receptor (UniProt P47871 26-477, limits assumed)
Sequence of glucagon receptor (P47871 26-477 limits assumed): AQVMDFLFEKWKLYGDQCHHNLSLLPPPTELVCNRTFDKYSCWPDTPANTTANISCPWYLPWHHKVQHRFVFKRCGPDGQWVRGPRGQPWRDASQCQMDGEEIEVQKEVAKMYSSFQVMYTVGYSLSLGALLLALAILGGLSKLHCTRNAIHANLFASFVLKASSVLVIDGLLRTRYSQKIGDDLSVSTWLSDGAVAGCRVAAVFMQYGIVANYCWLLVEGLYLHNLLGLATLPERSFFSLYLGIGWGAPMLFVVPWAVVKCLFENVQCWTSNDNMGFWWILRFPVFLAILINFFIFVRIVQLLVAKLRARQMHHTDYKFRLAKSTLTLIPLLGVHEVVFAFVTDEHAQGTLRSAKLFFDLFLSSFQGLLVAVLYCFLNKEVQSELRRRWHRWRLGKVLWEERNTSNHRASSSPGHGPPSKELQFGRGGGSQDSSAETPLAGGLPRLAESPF

GLP-1 receptor = GLP-1 receptor (UniProt P43220 24-463, limits assumed)

B1: peptide of SEQ ID NO: 33 (peptide)
peptide: H[Aib]QGTFTSDK([γGlu-γGlu-Palmitoyl])SKYLD[Aib]RAAQDFVQWLM[Orn]T[Orn]E-OH
modifications: N-terminus assumed
SMILES: CCCCCCCCCCCCCCCC(=O)N[C@@H](CCC(=O)N[C@@H](CCC(=O)NCCCC[C@H](NC(=O)[C@H](CC(=O)O)NC(=O)[C@H](CO)NC(=O)[C@@H](NC(=O)[C@H](Cc1ccccc1)NC(=O)[C@@H](NC(=O)CNC(=O)[C@H](CCC(N)=O)NC(=O)C(C)(C)NC(=O)[C@@H](N)Cc1c[nH]cn1)[C@@H](C)O)[C@@H](C)O)C(=O)N[C@@H](CO)C(=O)N[C@@H](CCCCN)C(=O)N[C@@H](Cc1ccc(O)cc1)C(=O)N[C@@H](CC(C)C)C(=O)N[C@@H](CC(=O)O)C(=O)NC(C)(C)C(=O)N[C@@H](CCCNC(=N)N)C(=O)N[C@@H](C)C(=O)N[C@@H](C)C(=O)N[C@@H](CCC(N)=O)C(=O)N[C@@H](CC(=O)O)C(=O)N[C@@H](Cc1ccccc1)C(=O)N[C@H](C(=O)N[C@@H](CCC(N)=O)C(=O)N[C@@H](Cc1c[nH]c2ccccc12)C(=O)N[C@@H](CC(C)C)C(=O)N[C@@H](CCSC)C(=O)N[C@@H](CCCN)C(=O)N[C@H](C(=O)N[C@@H](CCCN)C(=O)N[C@@H](CCC(=O)O)C(=O)O)[C@@H](C)O)C(C)C)C(=O)O)C(=O)O
GIP receptor
  EC50 (nM) at GIP receptor: 3.96 nM
Glucagon receptor
  EC50 (nM) at glucagon receptor: 0.023 nM
GLP-1 receptor
  EC50 (nM) at GLP-1 receptor: 0.019 nM

## H[Aib]QGTFTSDYSKYLDERRA[Aib]EFVC(40K‑TE PEG)WLLDGGPSSGAPPPS-NH2 [peptide of SEQ ID NO: 35]
GIP receptor
  EC50 (nM) at GIP receptor: 16.1 nM
Glucagon receptor
  EC50 (nM) at glucagon receptor: 1.18 nM
GLP-1 receptor
  EC50 (nM) at GLP-1 receptor: 0.085 nM

B2: peptide of SEQ ID NO: 36 (peptide)
peptide: H[Aib]QGTFTSDK([γGlu-Palmitoyl])SKYLD[Aib]RAAQDFVQWLKDGRG-NH2
modifications: N-terminus assumed
SMILES: CCCCCCCCCCCCCCCC(=O)N[C@@H](CCC(=O)NCCCC[C@H](NC(=O)[C@H](CC(=O)O)NC(=O)[C@H](CO)NC(=O)[C@@H](NC(=O)[C@H](Cc1ccccc1)NC(=O)[C@@H](NC(=O)CNC(=O)[C@H](CCC(N)=O)NC(=O)C(C)(C)NC(=O)[C@@H](N)Cc1c[nH]cn1)[C@@H](C)O)[C@@H](C)O)C(=O)N[C@@H](CO)C(=O)N[C@@H](CCCCN)C(=O)N[C@@H](Cc1ccc(O)cc1)C(=O)N[C@@H](CC(C)C)C(=O)N[C@@H](CC(=O)O)C(=O)NC(C)(C)C(=O)N[C@@H](CCCNC(=N)N)C(=O)N[C@@H](C)C(=O)N[C@@H](C)C(=O)N[C@@H](CCC(N)=O)C(=O)N[C@@H](CC(=O)O)C(=O)N[C@@H](Cc1ccccc1)C(=O)N[C@H](C(=O)N[C@@H](CCC(N)=O)C(=O)N[C@@H](Cc1c[nH]c2ccccc12)C(=O)N[C@@H](CC(C)C)C(=O)N[C@@H](CCCCN)C(=O)N[C@@H](CC(=O)O)C(=O)NCC(=O)N[C@@H](CCCNC(=N)N)C(=O)NCC(N)=O)C(C)C)C(=O)O
GIP receptor
  EC50 (nM) at GIP receptor: 0.47 nM
Glucagon receptor
  EC50 (nM) at glucagon receptor: 0.028 nM
GLP-1 receptor
  EC50 (nM) at GLP-1 receptor: 0.003 nM

B3: peptide of SEQ ID NO: 37 (peptide)
peptide: H[Aib]QGTFTSDK([γGlu-γGlu-Palmitoyl])SKYLD[Aib]RAAQDFVQWLMKTK[dE]-OH
modifications: N-terminus assumed
SMILES: CCCCCCCCCCCCCCCC(=O)N[C@@H](CCC(=O)N[C@@H](CCC(=O)NCCCC[C@H](NC(=O)[C@H](CC(=O)O)NC(=O)[C@H](CO)NC(=O)[C@@H](NC(=O)[C@H](Cc1ccccc1)NC(=O)[C@@H](NC(=O)CNC(=O)[C@H](CCC(N)=O)NC(=O)C(C)(C)NC(=O)[C@@H](N)Cc1c[nH]cn1)[C@@H](C)O)[C@@H](C)O)C(=O)N[C@@H](CO)C(=O)N[C@@H](CCCCN)C(=O)N[C@@H](Cc1ccc(O)cc1)C(=O)N[C@@H](CC(C)C)C(=O)N[C@@H](CC(=O)O)C(=O)NC(C)(C)C(=O)N[C@@H](CCCNC(=N)N)C(=O)N[C@@H](C)C(=O)N[C@@H](C)C(=O)N[C@@H](CCC(N)=O)C(=O)N[C@@H](CC(=O)O)C(=O)N[C@@H](Cc1ccccc1)C(=O)N[C@H](C(=O)N[C@@H](CCC(N)=O)C(=O)N[C@@H](Cc1c[nH]c2ccccc12)C(=O)N[C@@H](CC(C)C)C(=O)N[C@@H](CCSC)C(=O)N[C@@H](CCCCN)C(=O)N[C@H](C(=O)N[C@@H](CCCCN)C(=O)N[C@H](CCC(=O)O)C(=O)O)[C@@H](C)O)C(C)C)C(=O)O)C(=O)O
GIP receptor
  EC50 (nM) at GIP receptor: 3.3 nM
Glucagon receptor
  EC50 (nM) at glucagon receptor: 0.018 nM
GLP-1 receptor
  EC50 (nM) at GLP-1 receptor: 0.016 nM

## H[Aib]QGTFTSDYSKYLDEKRA[Aib]EFVC(40K‑TE PEG)WLMDT-NH2 [peptide of SEQ ID NO: 15]
GIP receptor
  EC50 (nM) at GIP receptor: 316 nM
Glucagon receptor
  EC50 (nM) at glucagon receptor: 1.1 nM
GLP-1 receptor
  EC50 (nM) at GLP-1 receptor: 0.071 nM
